Experimental data: the RNAGym collection of RNA variant scans (doi:10.7554/elife.90254)

B1: OR4K15 (parent)
chain: GUUAACGGUCAUAGGCCAUGGAAACUAGGAGCACCAUUUCGCUGCCAGUGAAGAAAUGAACAAAGAAAAUCUGGGCCAGGCAGGCAUCAAAAGAAAUAGUCUUGCGCUCAACCAGAAAGUCUGUAAUCAUUUUAAGGGUA

Variants of: B1
Assay: self-cleavage, relative activity (ratio to wild type); higher = more cleavage; in vitro, sequencing; the parent is a self-cleaving ribozyme
Work on GUUAACGGUCAUAGGCCAUGGGAACUAGGAGCACCAUUUCGCUGCCAGUGAAGAAAUGAACAAAGAAAAUCUGGGCCAGGCAGGCAUCAUAAGAAAUAGUCUUGCGCUCAACCAGAAAGUCUGUAAUCAUUUUAAGGGUA [A22G A90U] yielded a self-cleavage of 2.02.
With GUUAACGGUCAUAGGCCAUGGAAACUAGGAGCACCAUUUCGCUGCCAGUGAAGUAAUGAACAAAGAAAAUCUGGGCCAGGCAGGCAUCAAAAGAAAUAGUCUUGCGCUCAACCAGUAAGUCUGUAAUCAUUUUAAGGGUA [A54U A116U] the self-cleavage was 0.42.
In the case of GUUAACGGUCAUAGGCCAUGGAAACUAGGGGCACCAUUUCGCUGCCAGUGAAGAAAUGAACAAAGAAAAUCUGGGCCAGGCAGGUAUCAAAAGAAAUAGUCUUGCGCUCAACCAGAAAGUCUGUAAUCAUUUUAAGGGUA [A30G C85U], the self-cleavage is reported as 0.69.
GUUAACGGUCAUAGGCCAUGGAAACUAGGAGCACCAUUUCGCUGCCAGUGAAGAAAUGAACAAAGAAAAUCUGGACCAGGCAGGCAUCAAAAGAAAUAGUCUUGCGCUCAACCAGAAAGUCUGUAAUCAUUUUGAGGGUA [G75A A134G] showed a self-cleavage of 0.09.
Variant GUUAACGGUCAUAGGCCAUGGAAACUAGGAGCACCAUUUCGCUGCCAGUGAAGAAAUGAAUAAAGAAAAUCUGGGCCUGGCAGGCAUCAAAAGAAAUAGUCUUGCGCUCAACCAGAAAGUCUGUAAUCAUUUUAAGGGUA [C61U A78U] has a self-cleavage of 0.43.
Work on GUUAACGGUCAUAGGCCAUGGAAACUAGGAGCACCAUUUCGCUGCCAGUGAAGAAAUGAACAAAGAAAAUCUGGGCCAGGCAGGCAUCAAAAGAAAUAGUCUUGCGCUCAACCAGAAGGUCUGUAAUCAUUUUAAGGGAA [A118G U139A] yielded a self-cleavage of 0.92.
GUUAACGGUCAUAGGCCAUGGAAACUAGGAGCACCAUUUCGCUGCCAGUGUAGAAAUGAACAAAGAAAAUCUGGGCCAGGCAGGCAUCAAAAGAAAUAGUCUUGCGCUCAACCAGAAGGUCUGUAAUCAUUUUAAGGGUA [A51U A118G] showed a self-cleavage of 0.6.
For GUUAACGAUCAUAGGCCAUGGAAACUAGGAGCUCCAUUUCGCUGCCAGUGAAGAAAUGAACAAAGAAAAUCUGGGCCAGGCAGGCAUCAAAAGAAAUAGUCUUGCGCUCAACCAGAAAGUCUGUAAUCAUUUUAAGGGUA [G8A A33U], the self-cleavage was 2.08.
Variant GUUAACGGUCAUAGGCCAUGGAAACUAUGAGCACCAUUUCGCUGCCAGUGAAGAAAUGAACAAAGAAAAUCUGGGCCAGGCAGGCAUCAAAAGAAAUAGUCUUGCGCUCAACCAGAAGGUCUGUAAUCAUUUUAAGGGUA [G28U A118G] has a self-cleavage of 0.84.
For GUUAUCGGUCAUAGGCCAUGGAAACUAGGAGCACCAUUUCGCUGCCGGUGAAGAAAUGAACAAAGAAAAUCUGGGCCAGGCAGGCAUCAAAAGAAAUAGUCUUGCGCUCAACCAGAAAGUCUGUAAUCAUUUUAAGGGUA [A5U A47G], the self-cleavage was 1.
GUUAACGGUCAUAGGCCAUGGAAACUAGGAGCACCAUUUCGCUGCCAGUGAAGAAACGAACAAAGAGAAUCUGGGCCAGGCAGGCAUCAAAAGAAAUAGUCUUGCGCUCAACCAGAAAGUCUGUAAUCAUUUUAAGGGUA [U57C A67G] gave a self-cleavage of 0.83.
In the case of GUUAACGGUCAAAGGCCAUGGAAACUAGGAGCACCAUUUCGCUGCCAGUGAAGAAAUGAACAAAGAAAAUCAGGGCCAGGCAGGCAUCAAAAGAAAUAGUCUUGCGCUCAACCAGAAAGUCUGUAAUCAUUUUAAGGGUA [U12A U72A], the self-cleavage is reported as 0.36.
Work on GUUAACGGUCAUAGGCCAUGGAAACUAGGAGCACCAUUUCGCUGCCAGUGAAGAAAUGAACAAAGAAAAUCUGGGCCAGGCAGGCAUCAGAAGAAAUAGUCUUGCGCUCAACCAGAAAGUCUGUUAUCAUUUUAAGGGUA [A90G A125U] yielded a self-cleavage of 1.7.
GUUAACGGUCAUAGGCCAUGGAAACUAGGAGCACCAUUUCGCUGCCAGUGAAGAAGUGAACAAAGAAAAUCUGGGCCAGGCAGGCAUCAAAAGAAAUAGUCUUGCGCUCAACCAGAAAGUCUGAAAUCAUUUUAAGGGUA [A56G U124A] showed a self-cleavage of 0.78.
In the case of GUUAACGGUCAUAGGCCAUGGAAACUAGGAGCACCAUUUCGCUGCCUGUGAAGAAAUGACCAAAGAAAAUCUGGGCCAGGCAGGCAUCAAAAGAAAUAGUCUUGCGCUCAACCAGAAAGUCUGUAAUCAUUUUAAGGGUA [A47U A60C], the self-cleavage is reported as 0.14.
Variant GCUAACGGUCAUAGGCCAUGGAAACUAGGAGCACCAUUUCGCUGCCAGUGAAGAAAUGAACAAAGAAAAUCUGGGCCAGGCAGGCAUCAAAAGAAAUAGUCUCGCGCUCAACCAGAAAGUCUGUAAUCAUUUUAAGGGUA [U2C U103C] has a self-cleavage of 0.99.
For GUUAACGGUCAUAGGCCAUGGAAACUAGGAGCACCAUUUCGCUGCCAGCGAAGAAAUGAACAAAGAAAAUCUGGGCCAGGCAGGCAUCAAAAGAAAUAGUCUUGCGCUCAACCAGAAAGUCUGUGAUCAUUUUAAGGGUA [U49C A125G], the self-cleavage was 0.7.
Work on GUUAACGGUCAUAGGCCAUGGAAACUAGGAGCACUAUUUCGCUGCCAGUGAAGAAAUGAACAAAGAAAAUCUGGGCCAGGCAGGCAUCAAAAGAAAUAGUCUUGCGCUCAACCAGAAAGUCUGUAGUCAUUUUAAGGGUA [C35U A126G] yielded a self-cleavage of 0.58.
For GUUAACGGUCAUAGGCCAUGGAAACUAGGAGCACCAUUUCGCUGCCAGUGAAGAAAAGAACAUAGAAAAUCUGGGCCAGGCAGGCAUCAAAAGAAAUAGUCUUGCGCUCAACCAGAAAGUCUGUAAUCAUUUUAAGGGUA [U57A A63U], the self-cleavage was 1.38.
GUUAACGGUCAUAGGCCAUGGAAACUAGGGGCACCAUUUCGCUGCCAGUGAAGAAAUGAACAAAGAAUAUCUGGGCCAGGCAGGCAUCAAAAGAAAUAGUCUUGCGCUCAACCAGAAAGUCUGUAAUCAUUUUAAGGGUA [A30G A68U] gave a self-cleavage of 1.28.
GUUAACGGUCAUAGGCCAUGGAAACUAGGAGCACCAUUUCGCUGCCAGUGAAGAAAUGAUCAAAGAAAAUCUGGGCCAGGCAGGCAUCAAGAGAAAUAGUCUUGCGCUCAACCAGAAAGUCUGUAAUCAUUUUAAGGGUA [A60U A91G] gave a self-cleavage of 1.34.
GAUAACGGUCAUAGGCCAUGGAAACUAGGAGCACCAUUUCGCUGCCAGUGAAGAAAUGAACAAAGAAAAUCUGGGCCAGGCAGGCAUCAAAAGAAAUAGUCUUGCGCUCAACCAGAAAGUCUGUAAUCAUUCUAAGGGUA [U2A U132C] showed a self-cleavage of 1.21.
Work on GUUAACGGUCAUAGGCCAUGGAAACUAGGAGCACCAUUUCGCUGCCAGUUAAGAAAUGAACAAAGAAAAUCUGGGCCAAGCAGGCAUCAAAAGAAAUAGUCUUGCGCUCAACCAGAAAGUCUGUAAUCAUUUUAAGGGUA [G50U G79A] yielded a self-cleavage of 0.11.
GUUAACGGUCAUAGGCCAUGGAAACUAGGGGCACCAUUUCGCUGCCAGUGAAGAAAUGAACAAAGAAAAUCUGGGCCAGGCAGGCAUCAAAAGAAAUAGUCUUGCGCUCAACCAGAAAGUCUGCAAUCAUUUUAAGGGUA [A30G U124C] gave a self-cleavage of 0.74.
GUUAACGGUCAUAGGCCGUGGAAACUAGGAGCACCAUUUCGCUGCCAGUGAAGAAAUGAACAAAGAAAAUCUGGGCCAGGCAGGCAUCAAAAGAAAUGGUCUUGCGCUCAACCAGAAAGUCUGUAAUCAUUUUAAGGGUA [A18G A98G] showed a self-cleavage of 0.59.
In the case of GUUAACGGUCAUAGGCCAUGGAAACUAGGAGCACCACUUCGCUGCCAGUGAAGAAAUGAACAAAGAAAAUCUGGGCCAGGCAGGCAUCAAAAGAAAUAGUCUUGCGCUCAACCAGAAAGUCUGUAAUCAUUUUAAGGGCA [U37C U139C], the self-cleavage is reported as 1.72.
Variant GUUAACGGUCAUAGGCCAUGGAAACUAGAAGCACCAUUUCGCUGCCAGUGAAGAAAUGAACAAAGAAAAUCUGGGCCCGGCAGGCAUCAAAAGAAAUAGUCUUGCGCUCAACCAGAAAGUCUGUAAUCAUUUUAAGGGUA [G29A A78C] has a self-cleavage of 0.33.
For GUUAGCGGUCAUAGGCCAUGGAAACUAGGAGCACCAUUUCGCUGCCAGUGAAGAAAUGAACAAAGAAAAUCUGGGCCAGGCAGGCAUCAAAAGAAAUAGCCUUGCGCUCAACCAGAAAGUCUGUAAUCAUUUUAAGGGUA [A5G U100C], the self-cleavage was 1.11.
For GUUAACGGUCAUAGGCCAUGGAAACUAGGAGCACCAUUUCGCUGCCAGUGAAGAAAUGAACAAAGAAAAUCUGGGCCAGGCAGGCAUCAAAAGAAAUAGCCUUGCGCUCAACCAGAAAGUCUGUAACCAUUUUAAGGGUA [U100C U127C], the self-cleavage was 1.61.
GUUAACGGUCAUAGGCCAUGGAAACUAGGAGCACCAUUUCGCUGCCAGUGAAGAAAUGAACAAAGAAAAUCUGGGCCAGGCAGGCAUCAAAAGAAAUAGUCAUGCGCUCAACCAGAAAGUCUGUAAUCAUUUUAUGGGUA [U102A A135U] gave a self-cleavage of 0.49.
GUUAACGGUCAUAGGCCAUGGAAACUAGGAGCACCAUUUCGCUGCCAGUGAAGAAAUGUACAAAGAAAAUCUGGGCCAGGCAGGCAUCAAAAGAAAUAGUCUUGCGCUCAACCAGAAAGUCUGUAACCAUUUUAAGGGUA [A59U U127C] gave a self-cleavage of 0.28.
GUUAACGGUCAUAGGCCAUGGAAACUAGGAGCACCAUUUCGCUGCCAAUGAAGAAAUGAACAAAGAAAAUCUGGGCCAGGCAGGCAUCAGAAGAAAUAGUCUUGCGCUCAACCAGAAAGUCUGUAAUCAUUUUAAGGGUA [G48A A90G] showed a self-cleavage of 0.76.
For GUUAACGGUCAUAGGCCAUGGAAACUAGGAGCACCAUUUCGCUGCCAGUGAAGAAAUGAACAAAGAAAACCUGGGCCAGGCAGGCAUCAAAAGAAAUAGUCUUGCGCUCAACCAGAAUGUCUGUAAUCAUUUUAAGGGUA [U70C A118U], the self-cleavage was 0.18.
Work on GUUAACGGUCAUAGGCCAUGGAAACUAGGAGCACCAUUUCGCUGACAGUGAAGAAAUGAACAAAGAAAAUCUGGGCCAGGCAGGCAUCAAAAGAAAUAGUCUUGCGCUCAACCAGGAAGUCUGUAAUCAUUUUAAGGGUA [C45A A116G] yielded a self-cleavage of 1.32.
Variant GUUAACGGUCAUAGGCCAGGGAAACUAGGAGCACCAUUUCGCUGCCAGUGAAGAAAUGAACAAAGAAAAUCUGGGCCAGGCAGGCAUCAAAAGUAAUAGUCUUGCGCUCAACCAGAAAGUCUGUAAUCAUUUUAAGGGUA [U19G A94U] has a self-cleavage of 1.64.
Work on GUUAACGGUCAUAGGCCAUGGAAACUAGGUGCACCAUUUCGCUGCCAGUGAAGAAAUGAACAAAGAAAAUCUGGGCCAUGCAGGCAUCAAAAGAAAUAGUCUUGCGCUCAACCAGAAAGUCUGUAAUCAUUUUAAGGGUA [A30U G79U] yielded a self-cleavage of 0.09.
Variant GUUAACGGUCAUAGGCCAUGGAAACUAGGAGCACCAUUUCGCUGCCAGUGAAGAAUUGAACAAGGAAAAUCUGGGCCAGGCAGGCAUCAAAAGAAAUAGUCUUGCGCUCAACCAGAAAGUCUGUAAUCAUUUUAAGGGUA [A56U A64G] has a self-cleavage of 2.32.
Work on GUUAACGGUCAUAGGCCAUGGAAACUAGGAGCACCAUUUCGCUGCCAGUUAGGAAAUGAACAAAGAAAAUCUGGGCCAGGCAGGCAUCAAAAGAAAUAGUCUUGCGCUCAACCAGAAAGUCUGUAAUCAUUUUAAGGGUA [G50U A52G] yielded a self-cleavage of 0.42.
In the case of GUUAACGGUCAUAGGCCAUGGAAACUAGGAGCACCAUUUCGCUGCCAGUGAAGAAAUGAACAAAGAAAAUCUGGGCCAGGCAGGCAUCAAAAGAAAUAGUCUUGCGCCCAACCAGAAAGUCUGUAACCAUUUUAAGGGUA [U108C U127C], the self-cleavage is reported as 0.01.
For GUUAACGGUCAUAGGCCAUGGAAACUAGGAGCACCAUUUCGCUGCCAGUGAAGAAAUGAACAAAGAAAAUCUGGGCCCGGCAGGCAUCAAAAGAAAUUGUCUUGCGCUCAACCAGAAAGUCUGUAAUCAUUUUAAGGGUA [A78C A98U], the self-cleavage was 0.58.
GUUAACGGUCAUAGGCCAUGGGAACUAGGAGCACCAUUUCGCUGCCAGUGAAGAAAUGAACAAAGAAAAUCUGGGCCAGGCCGGCAUCAAAAGAAAUAGUCUUGCGCUCAACCAGAAAGUCUGUAAUCAUUUUAAGGGUA [A22G A82C] gave a self-cleavage of 0.25.
